This passage reports binding result, EC50 and Top results from patent US20250066499A1 (SUNSHINE GUOJIAN PHARMACEUTICAL SHANGHAI, published 2025).

A word on the EC50: it is the concentration needed to bring the measured effect to its halfway point. Low values mean an effect from little substance, high ones a need for much substance.

Where a chain is given by its changes, count along the chain named.

For assay [1], the target named is T1, mouse CD73 protein (mouse, UniProt Q61503 29-549, limits assumed).
T1 construct: Bought protein; also called CD73-mouse
T1 sequence (looked up): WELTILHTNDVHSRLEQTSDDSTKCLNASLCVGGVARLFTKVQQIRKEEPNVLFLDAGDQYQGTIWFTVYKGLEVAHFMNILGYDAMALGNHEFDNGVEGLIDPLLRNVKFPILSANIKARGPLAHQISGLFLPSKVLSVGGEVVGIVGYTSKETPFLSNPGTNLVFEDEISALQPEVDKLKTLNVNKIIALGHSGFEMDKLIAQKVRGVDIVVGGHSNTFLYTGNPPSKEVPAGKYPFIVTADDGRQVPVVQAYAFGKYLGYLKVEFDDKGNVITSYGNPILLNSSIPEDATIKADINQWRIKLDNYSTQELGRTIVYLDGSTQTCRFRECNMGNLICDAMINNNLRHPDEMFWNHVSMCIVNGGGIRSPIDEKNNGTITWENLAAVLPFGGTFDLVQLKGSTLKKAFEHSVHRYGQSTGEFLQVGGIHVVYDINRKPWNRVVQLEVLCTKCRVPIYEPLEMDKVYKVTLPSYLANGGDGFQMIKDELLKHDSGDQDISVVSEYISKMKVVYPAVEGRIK
Description: SPR Biacore 8K, antibody captured on Protein A/G. For orientation: In SPR one partner is held on a chip, and binding of the other changes the refractive index at the surface.

Assay [2] deals with T2, human CD73-His protein (human, UniProt P21589 27-549).
T2 construct: Expressed in HEK-293F with a signal peptide that is not specified; In the ELISAs it was biotinylated with EZ-Link NHS-Biotin (CD73-biotin) and captured on streptavidin; in SPR and the enzyme assay it was used as CD73-His; also called CD73-his antigen; CD73-biotin
T2 sequence: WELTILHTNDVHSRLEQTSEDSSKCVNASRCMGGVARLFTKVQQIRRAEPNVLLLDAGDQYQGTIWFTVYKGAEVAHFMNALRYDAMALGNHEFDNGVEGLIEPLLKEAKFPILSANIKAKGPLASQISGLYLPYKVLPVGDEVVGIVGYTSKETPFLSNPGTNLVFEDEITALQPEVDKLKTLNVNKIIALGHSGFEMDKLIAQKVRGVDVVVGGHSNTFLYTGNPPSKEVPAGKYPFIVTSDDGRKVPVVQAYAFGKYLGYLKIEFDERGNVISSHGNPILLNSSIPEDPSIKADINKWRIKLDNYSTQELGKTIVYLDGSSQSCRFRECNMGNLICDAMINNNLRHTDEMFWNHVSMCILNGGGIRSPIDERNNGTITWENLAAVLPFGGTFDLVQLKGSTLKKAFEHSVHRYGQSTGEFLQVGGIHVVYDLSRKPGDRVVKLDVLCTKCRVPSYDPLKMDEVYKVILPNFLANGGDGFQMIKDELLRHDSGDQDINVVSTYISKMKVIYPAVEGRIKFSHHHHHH
Description: ELISA, biotinylated CD73-His on streptavidin plate. As for the experimental part: (§1) The ELISA plates were coated with SA protein diluted to 1.5 μg/mL in coating buffer (50 mM carbonate coating buffer, pH 9.6) and incubated overnight at 4° C. The supernatant was discarded, and the plates were washed three times with PBST. Then, 5% skimmed milk powder prepared with PBS was added for blocking and the plates were incubated for 2 h at 37° C. After washing the plates once with PBST, CD73-biotin protein (prepared by biotinylating CD73-His protein according to the EZ-Link NHS-Biotin Reagent instructions) was diluted to 0.5 μg/mL and added at 100 μL/well for incubation at room temperature for 1 h. The plates were washed three times with PBST, and the prepared murine-derived monoclonal antibodies against human CD73 were serially diluted with 1% BSA buffer prepared with PBST and added to the ELISA plates at 100 μl/well. The plates were incubated at 37° C. for 1 h. After washing the plates three times with PBST, HRP-labeled goat anti-mouse IgG secondary antibody was added and the plates were incubated for 30 min at 37° C. After washing the plates three times with PBST, the residual droplets were patted dry on absorbent paper as much as possible. Then, 100 μl of TMB color developing solution was added to each well, and the plates were incubated in the dark at room temperature for 5 min for color development. Subsequently, 50 μl of 2M H₂SO₄ stop solution was added to each well to terminate the substrate reaction. The OD values were read at 450 nm using a multimode microplate reader to analyze the binding ability of the tested antibodies to the target antigen human CD73-His.
The binding affinity of various humanized antibodies to human CD73-his protein was measured with reference to Example 3.
(In an ELISA, binding on a coated surface is turned into a signal by an enzyme label.)

The target in assay [3] is T3, CD73-ND-V144A (human, UniProt P21589 27-317).
T3 construct: Alanine mutant of CD73-ND
T3 sequence: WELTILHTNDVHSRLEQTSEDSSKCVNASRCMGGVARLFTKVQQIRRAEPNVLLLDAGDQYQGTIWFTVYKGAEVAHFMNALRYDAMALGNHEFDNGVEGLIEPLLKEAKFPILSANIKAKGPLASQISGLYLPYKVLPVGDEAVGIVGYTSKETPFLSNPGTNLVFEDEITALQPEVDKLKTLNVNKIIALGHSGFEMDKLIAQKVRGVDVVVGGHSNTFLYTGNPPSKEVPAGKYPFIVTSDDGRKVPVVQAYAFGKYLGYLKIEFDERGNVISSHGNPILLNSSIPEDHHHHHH
Nature of the assay: ELISA, high plateau value (OD 450 nm). How it is done: as §1
(§2) Referring to the experimental method in Example 3, the affinity of 48A11-HuV33 for various mutant proteins of CD73-ND was determined. The SA protein was diluted to 1 μg/mL for coating the ELISA plates, and the biotinylated CD73 protein (CD73-biotin) was used at a concentration of 0.1 μg/mL.

The target in assay [4] is T4, CD73-ND-N185A (human, UniProt P21589 27-317).
T4 construct: Alanine mutant of CD73-ND
T4 sequence: T3 sequence with A144V, N185A
Nature of the assay: ELISA, high plateau value (OD 450 nm). As for the experimental part: as §1, §2

B1: 56B10-HuV31 (antibody, human IgG4, V domains shown)
VH: QVQLQQSGAEVKKPGASVKVSCKASGYTFTRYYIYWVRQRPGQGLEWIGWIYPGNFNTKYNEKFKGRATLTADTSASTAYMELSSLTSEDTAVYYCARDVYDYAGFAYWGQGTLVTVSS
VL: DIQLTQSPSFLSASVGDRVTITCKASQGVATAVAWYQQKPGQSPKLLIYWASTRHTGVPDRFSGSGSGTEFTLTISSLQPEDFATYYCQQYSSYPWTFGQGTKVEIK
notes: Humanized
Consider B1, for which, in assay [1], the binding result was “no binding”. The molecule further showed an EC50 in assay [2] of 0.079 nM.

B2: 48A11-HuV33 (antibody, human IgG4, V domains shown)
VH: QVQLVQSGAEVKKPGASVKVSCKASGYTFTSYWMHWVRQAPGQGLEWIGEINPSIGRTNYNEKFKSRVTLTRDTSTSTAYMELSSLRSEDTAVYYCARRVYGTMDYWGQGTLVTVSS
VL: DIQMTQSPSSLSASVGDRVTITCKASQDINSYLSWFQQKPGKSPKLLIYRANIWVDGVPSRFSGSGSGQDYTFTISSLQPEDIATYYCLQYDELYTFGQGTKVEIK
notes: Humanized
On to B2, for which the values for the Top in assay [3] and in assay [4] were 1.69 and 1.9, respectively. The binding result in assay [1] is “no binding”. Further, the EC50 in assay [2] was determined as 0.069 nM.
